Test results as given in the Immune Epitope Database (IEDB).

Assays:
Assay in all cases: IEDB peptide-MHC binding, purified MHC/competitive/radioactivity; filed as Kd, often an IC50 or EC50 that approximates it; ≥ and ≤ were set here for values at or beyond the usual limits of such assays
[1] = molecular target: HLA-A*68:01
[2] = molecular target: HLA-A*33:01
[3] = molecular target: HLA-A*03:01
[4] = molecular target: HLA-A*31:01
[5] = molecular target: HLA-A*11:01
[6] = source organism: Vaccinia virus WR
[7] = source organism: Dengue virus 3 Martinique/1243/1999
[8] = source organism: Dengue virus 1 Brazil/97-11/1997
[9] = source organism: Dengue virus 4 Philippines/H241/1956
[10] = source organism: Vaccinia virus Copenhagen
[11] = source organism: SARS coronavirus Tor2
[12] = source organism: Dengue virus 2 Jamaica/1409/1983
[13] = source organism: Lymphocytic choriomeningitis virus (strain Armstrong)
[14] = source organism: Mammarenavirus machupoense

MLEGETKLYK was tested, and the Kd [1, 6] was 9180 nM, the Kd [2, 6] was at least 70000 nM and the Kd [3, 6] was 20.6 nM. For the same sequence, the Kd [4, 6] was at least 50400 nM and the Kd [5, 6] was 63.4 nM.

For ALINLVQYR, the Kd [1, 6] was 258 nM, the Kd [2, 6] was 17400 nM and the Kd [3, 6] was 6500 nM. It also gave a Kd [4, 6] of 137 nM and a Kd [5, 6] of 3920 nM.

PVYISQFSY gave a Kd [1, 6] of at least 22400 nM, a Kd [2, 6] of 16200 nM and a Kd [3, 6] of 16300 nM. For the same sequence, the Kd [4, 6] was at least 25900 nM and the Kd [5, 6] was 1750 nM.

With EMGANFKADR the Kd [2, 7] was 1540 nM.

With TSSFREKSR the Kd [1, 6] was 132 nM, the Kd [2, 6] was 844 nM and the Kd [3, 6] was at least 65000 nM. It also gave a Kd [4, 6] of 132 nM and a Kd [5, 6] of 5750 nM.

With IVRTMPNESR the Kd [1, 6] was 401 nM, the Kd [2, 6] was 10700 nM and the Kd [3, 6] was 241 nM. The Kd [4, 6] was 4820 nM and the Kd [5, 6] was 16100 nM.

Work on TTVITPMLR yielded a Kd [1, 7] of 11.8 nM and a Kd [2, 7] of 36.7 nM.

TTLSLDYAWK was tested, and the Kd [1, 8] was 13.9 nM and the Kd [5, 8] was 79.8 nM.

Work on KIKTNDINVR yielded a Kd [1, 6] of 9080 nM, a Kd [2, 6] of at least 21000 nM and a Kd [3, 6] of 2910 nM. The Kd [4, 6] was 103 nM and the Kd [5, 6] was 11300 nM.

Sequence MGYWIESSK has a Kd [3, 9] of 83.9 nM.

SVLDIISSK gave a Kd [1, 10] of 184 nM, a Kd [2, 10] of 4410 nM and a Kd [3, 10] of 23.4 nM. For the same sequence, the Kd [4, 10] was 1670 nM and the Kd [5, 10] was 6.72 nM.

Sequence SLIDLQELGK has a Kd [1, 11] of 94.5 nM, a Kd [2, 11] of 1400 nM and a Kd [3, 11] of 183 nM. For the same sequence, the Kd [4, 11] was 75.9 nM and the Kd [5, 11] was 178 nM.

ASKKDKLTVY gave a Kd [1, 6] of at least 70200 nM, a Kd [2, 6] of at least 70000 nM and a Kd [3, 6] of 6590 nM. It also gave a Kd [4, 6] of 5290 nM and a Kd [5, 6] of 1220 nM.

Sequence EIMDKEQLLK has a Kd [1, 6] of 5.42 nM, a Kd [2, 6] of 9850 nM and a Kd [3, 6] of 1320 nM. The Kd [4, 6] was at least 50900 nM and the Kd [5, 6] was 87.8 nM.

Work on FMSHVKSVTK yielded a Kd [1, 6] of 31.6 nM, a Kd [2, 6] of 98.9 nM and a Kd [3, 6] of 7.73 nM. The Kd [4, 6] was 279 nM and the Kd [5, 6] was 3.28 nM.

With IAEFVKENER the Kd [1, 6] was 169 nM, the Kd [2, 6] was 5580 nM and the Kd [3, 6] was at least 70100 nM. It also gave a Kd [4, 6] of 1690 nM and a Kd [5, 6] of at least 30700 nM.

With IMQAGKRSLR the Kd [2, 12] was 219 nM and the Kd [4, 12] was 5.8 nM.

With VTTIMFLAR the Kd [1, 11] was 84.6 nM, the Kd [2, 11] was 167 nM and the Kd [3, 11] was 329 nM. For the same sequence, the Kd [4, 11] was 45.4 nM and the Kd [5, 11] was 24.6 nM.

LLMPILTLTR showed a Kd [1, 11] of 89.7 nM, a Kd [2, 11] of 262 nM and a Kd [3, 11] of 571 nM. It also gave a Kd [4, 11] of 5.53 nM and a Kd [5, 11] of 199 nM.

Sequence KMVEPWLSSK has a Kd [3, 9] of 11.5 nM.

For LINRFTMRHK, the Kd ([3]; source organism: Dengue virus 2 Peru/IQT2913/1996) was 14.1 nM.

With KSIHLTKTDK the Kd [1, 6] was 416 nM, the Kd [2, 6] was at least 70000 nM and the Kd [3, 6] was 107 nM. The Kd [4, 6] was 313 nM and the Kd [5, 6] was 19.8 nM.

For RNPYENILYK, the Kd [1, 13] was 5510 nM, the Kd [2, 13] was at least 37800 nM and the Kd [3, 13] was 7040 nM. The Kd [4, 13] was 16400 nM and the Kd [5, 13] was 3480 nM.

Sequence TIRHMWSVVY has a Kd [1, 6] of 2860 nM, a Kd [2, 6] of at least 70000 nM and a Kd [3, 6] of 294 nM. The Kd [4, 6] was at least 57000 nM and the Kd [5, 6] was 3080 nM.

YANCSSISIK gave a Kd [1, 6] of 51.7 nM, a Kd [2, 6] of 18100 nM and a Kd [3, 6] of 452 nM. The Kd [4, 6] was 4310 nM and the Kd [5, 6] was 115 nM.

With DILGVLTIK the Kd [1, 6] was 343 nM, the Kd [2, 6] was 194 nM and the Kd [3, 6] was 714 nM. It also gave a Kd [4, 6] of 12600 nM and a Kd [5, 6] of 1120 nM.

For NQATTKTTFK, the Kd [1, 11] was 506 nM, the Kd [2, 11] was at least 26500 nM and the Kd [3, 11] was 378 nM. For the same sequence, the Kd [4, 11] was 4270 nM and the Kd [5, 11] was 440 nM.

Work on SQLAKRFSR yielded a Kd ([4]; source organism: Dengue virus 3 Singapore/8120/1995) of 2.07 nM.

FTTRLLSSTR was tested, and the Kd [1, 9] was 25.5 nM and the Kd [2, 9] was 85.4 nM.

With MQKESDDYIK the Kd [1, 11] was 1550 nM, the Kd [2, 11] was at least 70000 nM and the Kd [3, 11] was 13200 nM. For the same sequence, the Kd [4, 11] was 5790 nM and the Kd [5, 11] was 364 nM.

With SVLCVKKFY the Kd [1, 6] was 2100 nM, the Kd [2, 6] was 12900 nM and the Kd [3, 6] was 13300 nM. The Kd [4, 6] was 7980 nM and the Kd [5, 6] was 372 nM.

With NIAEYIAGLK the Kd [1, 6] was 14.5 nM, the Kd [2, 6] was at least 25200 nM and the Kd [3, 6] was 132 nM. For the same sequence, the Kd [4, 6] was at least 70000 nM and the Kd [5, 6] was 518 nM.

WFFNNYLRK gave a Kd [1, 11] of 391 nM, a Kd [2, 11] of 894 nM and a Kd [3, 11] of 403 nM. For the same sequence, the Kd [4, 11] was 3880 nM and the Kd [5, 11] was 81.8 nM.

Sequence DVSMMSMYGK has a Kd [1, 6] of 1.21 nM, a Kd [2, 6] of 584 nM and a Kd [3, 6] of 149 nM. The Kd [4, 6] was 231 nM and the Kd [5, 6] was 1.28 nM.

Work on ISSKQYPAGR yielded a Kd [1, 6] of 8.59 nM, a Kd [2, 6] of 317 nM and a Kd [3, 6] of 1020 nM. For the same sequence, the Kd [4, 6] was 5.62 nM and the Kd [5, 6] was 128 nM.

In the case of KTSKTTILSK, the Kd [1, 6] is reported as 3960 nM, the Kd [2, 6] is reported as at least 70000 nM and the Kd [3, 6] is reported as 44.4 nM. For the same sequence, the Kd [4, 6] was 311 nM and the Kd [5, 6] was 96.4 nM.

With LFDFVNFVK the Kd [1, 6] was 128 nM, the Kd [2, 6] was 9100 nM and the Kd [3, 6] was 812 nM. The Kd [4, 6] was 798 nM and the Kd [5, 6] was 145 nM.

Sequence FMALVAFLR has a Kd [1, 12] of 50.6 nM, a Kd [2, 12] of 10.7 nM and a Kd [4, 12] of 16.9 nM.

In the case of DSVKSILKWH, the Kd [1, 14] is reported as at least 70100 nM, the Kd [2, 14] is reported as at least 33100 nM and the Kd [3, 14] is reported as at least 70000 nM. It also gave a Kd [4, 14] of 2650 nM and a Kd [5, 14] of at least 69700 nM.
